The values below are quoted from earlier work in article PMC6943629, “Binding of Gold(III) Porphyrin by the Pro-metastatic Regulatory Protein Human Galectin-3” (Molecules, 2019).

The target in series [1] is asialofetuin (Bos taurus) (UniProt P12763).
For a further series, the target named is MUC18 (Homo sapiens) (UniProt P43121). The series can be described thus: bio-layer interferometry.
Chain of MUC18 (Homo sapiens) (P43121 24-646): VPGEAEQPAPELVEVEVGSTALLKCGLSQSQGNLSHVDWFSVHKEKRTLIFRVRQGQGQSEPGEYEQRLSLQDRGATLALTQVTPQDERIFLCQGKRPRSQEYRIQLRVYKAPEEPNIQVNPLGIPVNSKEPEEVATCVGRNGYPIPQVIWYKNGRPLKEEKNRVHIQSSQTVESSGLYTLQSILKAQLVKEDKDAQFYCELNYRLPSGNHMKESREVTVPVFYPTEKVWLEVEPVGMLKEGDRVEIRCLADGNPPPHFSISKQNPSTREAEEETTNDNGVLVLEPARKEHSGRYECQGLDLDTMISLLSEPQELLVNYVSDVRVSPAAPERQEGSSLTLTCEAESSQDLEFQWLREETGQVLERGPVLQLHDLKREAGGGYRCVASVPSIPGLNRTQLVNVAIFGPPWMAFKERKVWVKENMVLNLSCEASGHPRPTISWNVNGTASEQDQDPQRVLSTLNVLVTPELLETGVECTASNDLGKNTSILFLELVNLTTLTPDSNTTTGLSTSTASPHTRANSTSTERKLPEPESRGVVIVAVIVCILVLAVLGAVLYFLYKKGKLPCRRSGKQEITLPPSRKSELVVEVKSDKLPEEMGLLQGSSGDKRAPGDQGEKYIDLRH

Chain of galectin-3 (P17931 2-250): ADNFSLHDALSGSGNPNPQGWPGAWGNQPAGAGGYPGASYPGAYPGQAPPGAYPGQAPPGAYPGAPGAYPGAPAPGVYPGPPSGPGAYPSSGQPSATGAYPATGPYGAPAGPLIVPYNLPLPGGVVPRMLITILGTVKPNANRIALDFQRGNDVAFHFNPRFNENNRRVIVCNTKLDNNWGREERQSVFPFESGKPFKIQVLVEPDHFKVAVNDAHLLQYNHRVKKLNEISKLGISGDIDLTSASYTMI
Chain of asialofetuin (Bos taurus) (P12763 19-359): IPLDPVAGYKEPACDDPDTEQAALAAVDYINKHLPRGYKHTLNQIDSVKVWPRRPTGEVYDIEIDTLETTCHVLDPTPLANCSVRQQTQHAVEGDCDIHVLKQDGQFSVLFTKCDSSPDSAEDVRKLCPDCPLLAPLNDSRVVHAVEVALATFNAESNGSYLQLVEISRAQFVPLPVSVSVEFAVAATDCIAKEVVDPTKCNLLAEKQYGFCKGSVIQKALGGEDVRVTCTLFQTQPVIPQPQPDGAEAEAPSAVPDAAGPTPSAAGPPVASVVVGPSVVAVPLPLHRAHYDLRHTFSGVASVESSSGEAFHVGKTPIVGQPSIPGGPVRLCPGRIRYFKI

Turning to galectin-3 (from UniProt P17931), the Kd in series [1] is 720 nM; with MUC18 (Homo sapiens), 430 nM.
